Experimental data taken from publication doi:10.1101/2021.06.22.449466 (bioRxiv, 2021).
Like-named read-outs stand apart in the source and are kept apart here.

Experiments:
[1] = biological target: T1, Human RPA (heterotrimeric RPA complex: RPA70, RPA32 and RPA14 subunits) (human, UniProt P27694;P15927;P35244); assay: BLI
[2] = biological target: T1, Human RPA (heterotrimeric RPA complex: …); assay: BLI; remark: listed apart in the source

T1 sequence (P27694 whole entry, chain 1 of 3): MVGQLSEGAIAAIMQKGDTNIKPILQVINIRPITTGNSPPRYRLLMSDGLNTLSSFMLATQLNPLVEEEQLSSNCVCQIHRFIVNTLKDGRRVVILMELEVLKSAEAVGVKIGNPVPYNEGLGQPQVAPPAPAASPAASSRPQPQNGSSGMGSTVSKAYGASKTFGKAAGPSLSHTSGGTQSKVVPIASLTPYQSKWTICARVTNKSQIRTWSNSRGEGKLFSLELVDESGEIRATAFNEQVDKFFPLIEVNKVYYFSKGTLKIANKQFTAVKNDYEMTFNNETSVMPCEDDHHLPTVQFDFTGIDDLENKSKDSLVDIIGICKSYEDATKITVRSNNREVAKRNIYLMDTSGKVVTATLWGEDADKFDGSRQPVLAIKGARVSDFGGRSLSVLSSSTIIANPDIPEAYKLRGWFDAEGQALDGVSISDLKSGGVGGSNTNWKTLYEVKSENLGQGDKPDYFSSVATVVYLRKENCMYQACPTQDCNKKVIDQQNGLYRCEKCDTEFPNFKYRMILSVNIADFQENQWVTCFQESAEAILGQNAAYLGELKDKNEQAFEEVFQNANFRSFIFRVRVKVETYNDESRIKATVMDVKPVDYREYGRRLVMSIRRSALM
T1 sequence (P15927 whole entry, chain 2 of 3): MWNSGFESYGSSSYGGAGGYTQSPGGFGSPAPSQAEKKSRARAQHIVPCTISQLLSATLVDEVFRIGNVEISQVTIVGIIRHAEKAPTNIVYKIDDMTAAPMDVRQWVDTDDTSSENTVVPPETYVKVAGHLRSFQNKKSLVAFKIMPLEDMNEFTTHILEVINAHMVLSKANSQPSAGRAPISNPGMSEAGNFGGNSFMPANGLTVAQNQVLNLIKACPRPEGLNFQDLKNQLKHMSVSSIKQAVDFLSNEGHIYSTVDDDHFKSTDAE
T1 sequence (P35244 whole entry, chain 3 of 3): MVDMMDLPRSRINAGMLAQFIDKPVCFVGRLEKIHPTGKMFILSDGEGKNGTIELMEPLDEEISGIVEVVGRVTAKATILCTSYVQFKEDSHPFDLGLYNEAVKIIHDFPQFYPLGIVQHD

Kd [1]: 35 µM
Kd [2]: 1.5 µM
B1: Lamin-C (amino acid residues 1-152) (domain or fragment)
chain: METPSQRRATRSGAQASSTPLSPTRITRLQEKEDLQELNDRLAVYIDRVRSLETENAGLRLRITESEEVVSREVSGIKAAYEAELGDARKTLDSVAKERARLQLELSKVREEFKELKARNTKKEGDLIAAQARLKDLEALLNSKEAALSTAL
